Measured values published in PMC12858348, “Structural basis underlying the autoinhibition of the formin FHOD1 and its phosphorylation-dependent activation” (The Journal of Biological Chemistry, 2025).
Where a chain is given by its changes, count along the chain named. Names may count otherwise.

T1: His-tagged FHOD1-N3 (1–360) (human, UniProt Q9Y613 1-360)
T1 construct: human FHOD1, residues 1-360 (GBD and FH3 domains), from human FHOD1 cDNA in pProEX-HTb; also called FHOD1-N-WT; N-terminal region
T1 sequence (looked up): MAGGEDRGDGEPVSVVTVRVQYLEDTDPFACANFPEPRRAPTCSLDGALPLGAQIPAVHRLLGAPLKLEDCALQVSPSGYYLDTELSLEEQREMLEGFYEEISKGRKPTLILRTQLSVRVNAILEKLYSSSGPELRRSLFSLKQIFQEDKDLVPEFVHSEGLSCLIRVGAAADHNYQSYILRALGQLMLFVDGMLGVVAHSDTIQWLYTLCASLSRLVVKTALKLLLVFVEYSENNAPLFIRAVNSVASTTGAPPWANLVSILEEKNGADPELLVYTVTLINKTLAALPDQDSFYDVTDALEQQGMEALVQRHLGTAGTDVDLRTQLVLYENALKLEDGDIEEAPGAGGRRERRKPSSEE

B1: GST-fused FHOD1–DAD (1081–1145) (domain or fragment, human, UniProt Q9Y613 1081-1145, looked up)
chain: MPTVGPSTASPEEPPGSSLPSDTSDEIMDLLVQSVTKSSPRALAARERKRSRGNRKSLRRTLKSG
notes: human FHOD1, residues 1081-1145 (diaphanous autoregulatory domain), in pGEX-6P; also called DAD-WT; GST-DAD; source: E. coli BL21, purified (glutathione-Sepharose-4B)
B2: GST-fused FHOD1–DAD (1081–1145) M1108A (domain or fragment, human, UniProt Q9Y613 1081-1145, looked up)
chain: B1 chain with M28A
notes: human FHOD1, residues 1081-1145 (DAD), M1108A in the core motif; also called DAD-M1108A; source: E. coli BL21, purified (glutathione-Sepharose-4B)

Molecular target: T1, His-tagged FHOD1-N3 (1–360)
Test: pull-down; 20 μg GST fusion protein (GST-DAD 1.25 μM) and 20 μg His-tagged protein (His-FHOD1-N3 1.0 μM) in 500 μl PBS pH 7.4 with 0.1% Triton X-100; glutathione-Sepharose 4B, 1 h at 4 °C; three washes; eluted with 10 mM glutathione; SDS-PAGE, CBB staining, densitometry
Conditions: both partners purified

Binder | binding result
B1 | binds
B2 | binds
